B1: BBSome complex member BBS1 (Homo sapiens), Q8NFJ9 (parent)
chain: MAAASSSDSDACGAESNEANSKWLDAHYDPMANIHTFSACLALADLHGDGEYKLVVGDLGPGGQQPRLKVLKGPLVMTESPLPALPAAAATFLMEQHEPRTPALALASGPCVYVYKNLRPYFKFSLPQLPPNPLEQDLWNQAKEDRIDPLTLKEMLESIRETAEEPLSIQSLRFLQLELSEMEAFVNQHKSNSIKRQTVITTMTTLKKNLADEDAVSCLVLGTENKELLVLDPEAFTILAKMSLPSVPVFLEVSGQFDVEFRLAAACRNGNIYILRRDSKHPKYCIELSAQPVGLIRVHKVLVVGSTQDSLHGFTHKGKKLWTVQMPAAILTMNLLEQHSRGLQAVMAGLANGEVRIYRDKALLNVIHTPDAVTSLCFGRYGREDNTLIMTTRGGGLIIKILKRTAVFVEGGSEVGPPPAQAMKLNVPRKTRLYVDQTLREREAGTAMHRAFQTDLYLLRLRAARAYLQALESSLSPLSTTAREPLKLHAVVQGLGPTFKLTLHLQNTSTTRPVLGLLVCFLYNEALYSLPRAFFKVPLLVPGLNYPLETFVESLSNKGISDIIKVLVLREGQSAPLLSAHVNMPGSEGLAAA
partner: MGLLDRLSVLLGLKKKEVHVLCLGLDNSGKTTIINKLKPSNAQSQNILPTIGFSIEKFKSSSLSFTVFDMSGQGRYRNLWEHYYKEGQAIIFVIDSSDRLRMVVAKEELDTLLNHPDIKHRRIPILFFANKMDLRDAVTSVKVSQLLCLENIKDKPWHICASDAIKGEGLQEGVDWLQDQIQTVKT
B2: ADP-ribosylation factor-like protein 6 (Homo sapiens), Q9H0F7-1 (parent)
chain: B1 partner
partner: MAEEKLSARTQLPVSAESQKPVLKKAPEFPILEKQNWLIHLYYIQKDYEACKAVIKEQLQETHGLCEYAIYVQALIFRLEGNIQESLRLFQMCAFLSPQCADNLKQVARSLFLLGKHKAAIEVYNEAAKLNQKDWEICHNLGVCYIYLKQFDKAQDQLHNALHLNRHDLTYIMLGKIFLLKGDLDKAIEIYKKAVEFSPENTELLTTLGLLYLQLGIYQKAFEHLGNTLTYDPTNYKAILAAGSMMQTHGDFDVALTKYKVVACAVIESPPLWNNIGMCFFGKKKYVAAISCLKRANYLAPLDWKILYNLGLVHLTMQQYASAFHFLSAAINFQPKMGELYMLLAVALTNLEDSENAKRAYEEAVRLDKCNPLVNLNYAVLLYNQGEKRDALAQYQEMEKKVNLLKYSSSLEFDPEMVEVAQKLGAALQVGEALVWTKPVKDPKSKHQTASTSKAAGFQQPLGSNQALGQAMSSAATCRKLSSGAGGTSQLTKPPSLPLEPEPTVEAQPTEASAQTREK

Variants of: B1
Details: with ARL6, Q9H0F7-1

Row | Variant | effect of a mutation on the interaction
1 | M390R | disrupting interaction strength

Variants of: B1
Details: with ARL6, Q9H0F7-1
Remark: another data set of the same source

Row | Variant | effect of a mutation on the interaction
2 | I399E | disrupting interaction strength
3 | R404A | disrupting interaction strength

Variants of: B2
Details: with bbs4_bovin BBS4, Q1JQ97

Row | Variant | effect of a mutation on the interaction
4 | E108A | disrupting interaction strength
5 | R77A | disrupting interaction strength
6 | L100E | disrupting interaction strength

— IntAct's records for PubMed 25402481
